Experimental data: the DeepSol protein solubility set

Assay: soluble on expression in E. coli; label from the status in PepcDB or PDB records

Row | Sequence | soluble on expression in E. coli
1 | MSLKLWKNATFYQMTAEGDQVSAVLTENGQICAVGEAMDLEKQYVANITETIDLEGKVVFPGFVDAHIHLLWYGQALERLNLNQTTTKKEALALIAERTKQIASDEWLFVEGYDENKWSDEQTLISLADLDEVSQTNPILVRRIDYHSVSINSALQEKIADFSETGFDGGGEIVRDKTGEFIGVLRDNATTMAIDSFPAATPSELSAWLEIAITDLWSKGITGAHSEDLHYFTGFASTLAAFRNTIGSNKMPFRAHLLVHHAELAAFSASNESFVSGDAFLELGAMKIFYDGTVGSRTALMSAGYADNPSEKGLQIHSDQAFEDLVKAARKAGLPVAIHILGDQAFANVIRTLRANPPKEGQYDRLIHTPWLTEALIEEATGLPVLFDIQPQFMASDLPWALEVLGDNHPPLAFAWKTLLQAGFPLAGGSDAPIEVPNPFWGIHAAVTRTANADLDGVGYWPEQALTVFEAIQLYTKGAAFASYKTTTRGQIAPGFVADFTILAEDPFQMKQAELRQVSVVMTVVNEQIVYQKKEGHHHHHH | soluble
2 | GPGSMNNDKSEFYITGMTAGKLPMNNQQMVGYQRRMKIQVNKLMTEKQMTRMDAAAQGNTNTFEPFARERRRATAHVEQYPNIGHSPSGDDATTPKDVIPMLLIKKQLREFGRGRLRMPFTDTLSANVEKFTTPVGQTQVTGQPEILVTEKKLSAEGI | not soluble
3 | MGSDKIHHHHHHMETLILTQEEVESLISMDEAMNAVEEAFRLYALGKAQMPPKVYLEFEKGDLRAMPAHLMGYAGLKWVNSHPGNPDKGLPTVMALMILNSPETGFPLAVMDATYTTSLRTGAAGGIAAKYLARKNSSVFGFIGCGTQAYFQLEALRRVFDIGEVKAYDVREKAAKKFVSYCEDRGISASVQPAEEASRCDVLVTTTPSRKPVVKAEWVEEGTHINAIGADGPGKQELDVEILKKAKIVVDDLEQAKHGGEINVAVSKGVIGVEDVHATIGEVIAGLKDGRESDEEITIFDSTGLAIQDVAVAKVVYENALSKNVGSKIKFFRI | soluble
4 | SNAMKKTLILGATPETNRYAYLAAERLKSHGHEFIPVGRKKGEVLGKTIINERPVIEGVDTVTLYINPQNQLSEYNYILSLKPKRVIFNPGTENEELEEILSENGIEPVIGCTLVMLSAGTF | soluble
5 | MPRKQRVVTTPSPPTSDEDEDMDFGSTSQQQQQQPTRNNDGLSGFKSITEIIAEADNNIPSEQIDKDIDSFSSYSDISDWRGIPKFFPSLSSLSRRASTYENWENRFKVVDYLVSCSGALKDSVSDYVADYFEKNESGEDHSVDVELVHAVSMFVILTQRLTVQLQLYVSKSIASANQQAKRGTGRGGRQVDLDDDIVKWKDIQRHRMINCLLELLELRVDTVAGTKKKAIQYVFAPDVMEKDFLLRFLDTVVQLLEDPENMARSSQQWISHYFRILKVLSADYGMTKDVANCLFTALSHSYLEAANTFPFIEPLVTLMKENGEGSGRIYQPLRNVLQLVICRVGNLYAGERAEKPPPKAFCMMVQSLAINVHDLMLQDITHVYRLLQNQHVNVRMSTLHALADMFSSSYLSQSLCDTFASRRLKREGIFKRLLAHTNDEATNVRSKAVSLLRNIMENRRIPEEFESCGLLSIVGSRLNDKSVQVRKSAIQFLTTFLDNNRHGHDFNREMHQLKLNAKCSELRNAEEPQSKAIQGAENAFRQNLFTLTAGVRVEVYDIFRRRYRVEPERSITDILTGLFSPGSGNRLVRYYVAQENFPFRDRIPSLRERRSDDMEDDDDDTVSLEDDDMTSLVSEVVKWVVAQAEEDYVTFKVQLTQMDDDQLLENEQEARDRNNQIMQLRAQVQQLINKMSIEQELSRCVTIALRCVLNGETAEIKEGIRFLTRCKLFEITGADDAIRSMCSLVWRPSADILNELIEAAEDMFISRLDGNEKASERDSSTVENLMKAMNGVTEKDRPSVEEVIYLLAATELVHVDSDKNKVPRKRRPIEANVINKLWMIALDMSHGINSRKIDALRILYPISRSERGIAEARSRLRVVQKKLMDPELAVDALRIISILGTPTKLENEQDAYSRPLFKIHQDDSLWKSIEKLFFYEIMKADDNPDRDWFGVIRLTITTILSLSMDVNVMLPKLASHFVYRTKRISDFFLFYCDQVDDATDDTRKKMAQRRREYWALTYCRVMEKLMAFIGEVAVQLNAYIQVTIPKLHTRYVSKMVDAEKNDANIREEPVRFLSDLEKSVAQRKTIFTVPQDTTPGATSNDLHHLVSVMCDKRLFVPNKLMGRLLPIVVYGMRCKIMPTRIRHAATVAYGKMMPLSAEISAFAAPSFFSAMTKSSSILLRCNLVAACCDFAFAQPTLFELFAQSLFRMSQDESPLARESTILVLSHLMSNDMIQTRGVLSEAARCICDPTRAVRDVAQSFFKELNSRTDTIIQLLPEFLYHLSNGNERMSFKSYKTVFEFLIQLLKDKPKASADSMIDRVCIKFSNTDMNDSETPKYLLVALAKFVQNDGGLHRLQDNWRHWSKFMCHPSVAKEYRMMVEHMHSTSKNDEFKSQCVELIDNINKIESEGLRKEDVAIGSSITKNKGRAKKNPTTMSGSSRTTSRAANSRRRAPPPAQSDEDDSDSDDAPAAPRSAARRKAKKSAVADDDSDSDEFMLDD | not soluble
6 | MAGDPMLTAPPKEAARPTLMPRAQSYKDLTHLPAPTGKIFVSVYNIQDETGQFKPYPASNFSTAVPQSATAMLVTALKDSRWFIPLERQGLQNLLNERKIIRAAQENGTVAINNRIPLQSLTAANIMVEGSIIGYESNVKSGGVGARYFGIGADTQYQLDQIAVNLRVVNVSTGEILSSVNTSKTILSYEVQAGVFRFIDYQRLLEGEVGYTSNEPVMLCLMSAIETGVIFLINDGIDRGLWDLQNKAERQNDILVKYRHMSVPPESLEHHHHHH | not soluble
7 | MTVLKLSHWRVLAELADGLPQHVSQLARMADMKPQQLNGFWQQMPAHIRGLLRQHDGYWRLVRPLAVFDAEGLRELGERSGFQTALKHECASSNDEILELARIAPDKAHKTICVTHLQSKGRGRQGRKWSHRLGECLMFSFGWVFDRPQYELGSLSPVAAVACRRALSRLGLDVQIKWPNDLVVGRDKLGGILIETVRTGGKTVAVVGIGINFVLPKEVENAASVQSLFQTASRRGNADAAVLLETLLVELDAVLLQYARDGFAPFVAEYQAANRDHGKAVLLLRDGETVFEGTVKGVDGQGVLHLETAEGKQTVVSGEISLRSDDRPVSVPKRRDSERFLLLDGGNSRLKWAWVENGTFATVGSAPYRDLSPLGAEWAEKADGNVRIVGCAVCGEFKKAQVQEQLARKIEWLPSSAQALGIRNHYRHPEEHGSDRWFNALGSRRFSRNACVVVSCGTAVTVDALTDDGHYLGGTIMPGFHLMKESLAVRTANLNRHAGKRYPFPTTTGNAVASGMMDAVCGSVMMMHGRLKEKTGAGKPVDVIITGGGAAKVAEALPPAFLAENTVRVADNLVIYGLLNMIAAEGREYEHI | not soluble
8 | MGSDKIHHHHHHSSCGNDESDPDSTVTIAMATVEKQPQYDAPYLVLDNGEKLWVVQHIVPYRDLKAGERIFGNYSFLEAGESGFAYNIRLNDYTLVPVQKIIGLNPDNMDSIGNMKVQIKDMWPSDDYLNVRFMLNFPSPQKPILNLVVNEMIPWTKDGYAHLELRYNNNGSQGRLVPGMVSFKLDDYSPENSELKGIKVLVNPVDGEEKTYIFSYPLTGEDVPGFNPLDLAELK | not soluble
9 | MEIEVKFRVNFEDIKRKIEGLGAKFFGIEEQEDVYFELPSPKLLRVRKINNTGKSYITYKEILDKRNEEFYELEFEVQDPEGAIELFKRLGFKVQGVVKKRRWIYKLNNVTFELNRVEKAGDFLDIEVITSNPEEGKKIIWDVARRLGLKEEDVEPKLYIELINGLEHHHHHH | soluble
10 | MGSDKIHHHHHHMLEIVAFRGDEYGLSARILADFLDEFRIHEMSPDNFNGKEEIENDFIIVCNPKLLTENFLRQAYEYSRDRGIYFGVISALSIDLLREKLANYQEQISLDPQQYLIILRKENKSIKHRLNAEVFTRYESTVDNFDRVKHKKLCLSMVIDGNRRHLHLSDGKICGINRDIPLEEIYRYFPDCQNCEYERVYAQDVQAECIFMDSCSSTLISTSEKGEYINVGMNFLKNAKVLISSYRPKQGYNSEALLFHHLISHGFEAGEVLYILNTNSYNHCSDYLPYILYGFPNAKVTIPEKLEVDRLRMGKSEIVLEIDRIAGMRLLEIHAGEDILNEVLKRQFYVFSSDEIRKDVFYSVIPYPLKNSIKLFLYSWEEVNGPLRIVFGVGKRLREDVYSKRYFNMRKLELLGFRHKKIQNQVHDYFSKINEQTEVLDEANRNLKNFDLHRLSKNLSAVEERIYNLLADHLLSQNPKFFIEVYGENMTVRCAEEDLHKTIRCPYCGNYLSIKESENTLVPMKRYSGFCSNCHNVFDTESVHPPKYPEIVLVHEQPDRKIFYVKVWNENAHTTNNLVCFNLWCENRSEMENIYLSRDFQVFTLEPGGEEKFEVEVALKRTDQRINKTYCLYVYWFEDFNLSVSTYTFRLKNV | not soluble
11 | MAISDWPEAERPREKLIEKGAAALSDAELLAIFLRTGITGVSAVELARKLLTHFGSLTKLCAASLHEFSELPGMGPAKFAQLQAVMEMAKRALAEELKNGDIMDSPQSVRNYLCLSLKGKPYEVFVGIFLDARHRTIVTEELFNGTLTQASVYPREVVKRALYHNAAAMIFAHNHPSGIAEPSTADEILTQSLKQALALVDVKVLDHFVIGSSEVVSFAERGLI | not soluble
12 | MGSSGMGVDANGKPIKRQPTTNNNNKKAGNNSNNQKKGNNQNNKNNKNQNGGNRNQNRQHHQPPMMQMVPPFGPMGPGGPGGPGFMGPPNGNMNFFNGQNRRNGSGKNNGNRNGAPPSGYNGPSANNVGQGAIGNNMNGAQPFAGPEPSMEVPGFGKNSNIHELFGKMIWRKMEQINDAALVDQLQNRIMNLIHDALASQNDKQQQQQQQQHQQGFNQQRGMPFGGPGNQNGPFGNNAGFQRF | not soluble
13 | MSTQIKVTPEQLEQAAKTVKNTRSSLEYIHQDLYSQTEYIASQWSGASSDRFYQMFNEAKPMMFNILQELDKIAVELERAAVKFREADELYGGNLVDSDIQEGAMCGKIPPKSEESFFNNKDLNAAWTGISTGFVDGAVDAWEGLISLGDKETWLNMRDAIVNYEETIPAALNALSDSFVNNLWHGDMESREHYAAYGIATLGLGLLGDKGLSKAGQVGKGAAITGFTKGKSLVTNSPAYRNALHILNNYEFKAGNHLSYAGVGSIQKYLQKAAPYTYEGPNGPKTIRLRLGELAGDKHPVTGIRYDLDGFPIFKALSEVKLKEADFKKSRPTHDRICSKALYEQIMKDPKLAAKFTEEEIELFKLGEVPENYTWHHHQEAGRMQLVDYETHRKTGHTGGYKIWGKDSDK | not soluble
14 | GSHMSRILAVHASPRGERSQSRRLAEVFLAAYREAHPQARVARREVGRVPLPAVTEAFVAAAFHPQPEQRSLAMQADLALSDQLVGELFDSDLLVISTPMYNFSVPSGLKAWIDQIVRLGVTFDFVLDNGVAQYRPLLRGKRALIVTSRGGHGFGPGGENQAMNHADPWLRTALGFIGIDEVTVVAAEGEESGGRSFEDSCDEAEQRLLALARSA | soluble
15 | MSLRVRTPSDDPVASAQIELIKQRINNIELFQNNRQAADSALRLEEGILSNAVNSLHRLREIQIQAGNPSLSEEDRKTLAVEAQALLNQLLDYANTKDSNGSYMFSGSKSLTQPVSLNLSGQYVYNGDSTQRFQAVTTSLLVAVNDTGDNVFMRIPSGNGRFAIRETLTPNTGTASVSSGSVTNEAAFVPDNYTMTFALNSQGNLVVMVSGTLSGNVIPPSGLPDDAPLYQEGSAIGFNGMEMVVSGLPKAGDSFSISPAKNESIFSTVQRMINNLNKPYTSSVEKAATQTENNQLLAQIDSALGHILSVQSDLGARLNQLETAEKANNDYLDISAATLKKLREIDPVAVATELNLQLVNLQAAQLSFTRIQGLSLFNFLEGHHHHHH | soluble
